In patent EP2105446A2 (ZymoGenetics, Inc., dated 2009):

Columns and labels:
[1] = target: factor present in the activated monkey spleen conditioned media (monkey); assay: cell-based or functional assay
[2] = target: factor present in the activated CD3+ selected human T-cell conditioned media (human); assay: cell-based or functional assay

inhibition of BaF3/Zalpha11 cell growth (Alamar Blue), concentration giving complete inhibition [1] [µg/mL] | titration of soluble receptor, lowest concentration giving complete inhibition of BaF3/Zalpha11 growth [1] [ng/mL] | inhibition of BaF3/Zalpha11 cell growth (Alamar Blue), concentration giving complete inhibition [2] [µg/mL] | titration of soluble receptor, lowest concentration giving complete inhibition of BaF3/Zalpha11 growth [2] [ng/mL] | Binder
10 | 20 | 10 | 20 | zalpha11CEE soluble receptor (zalpha11 extracellular domain with C-terminal Glu-Glu tag) (receptor) not shown
10 | 20 | 10 | 20 | zalpha11CFLG soluble receptor (zalpha11 extracellular domain with C-terminal FLAG tag) (receptor) not shown
